In doi:10.1101/2022.04.14.487897 (bioRxiv, 2022):

Tests used:
mortalin (HSPA9) [1] = molecular target: mortalin (HSPA9) (UniProt P38646); assay: MST
[2] = molecular target: ferrous cytochrome c (Fe2+), horse heart (horse, UniProt P00004 1-105, heme iron ferrous (Fe^2+)); assay: enzyme inhibition
[3] = molecular target: H26Y cytochrome c (globular structure, high peroxidase activity) (UniProt P00004); assay: enzyme inhibition
mortalin (HSPA9) [4] = molecular target: mortalin (HSPA9) (UniProt P38646 47-679, Alexa 647 dye (NanoTemper) / NT-647 label); assay: MST
Chain of mortalin (HSPA9) (UniProt P38646 47-679, Alexa 647 dye (NanoTemper) / NT-647 label) (P38646 47-679): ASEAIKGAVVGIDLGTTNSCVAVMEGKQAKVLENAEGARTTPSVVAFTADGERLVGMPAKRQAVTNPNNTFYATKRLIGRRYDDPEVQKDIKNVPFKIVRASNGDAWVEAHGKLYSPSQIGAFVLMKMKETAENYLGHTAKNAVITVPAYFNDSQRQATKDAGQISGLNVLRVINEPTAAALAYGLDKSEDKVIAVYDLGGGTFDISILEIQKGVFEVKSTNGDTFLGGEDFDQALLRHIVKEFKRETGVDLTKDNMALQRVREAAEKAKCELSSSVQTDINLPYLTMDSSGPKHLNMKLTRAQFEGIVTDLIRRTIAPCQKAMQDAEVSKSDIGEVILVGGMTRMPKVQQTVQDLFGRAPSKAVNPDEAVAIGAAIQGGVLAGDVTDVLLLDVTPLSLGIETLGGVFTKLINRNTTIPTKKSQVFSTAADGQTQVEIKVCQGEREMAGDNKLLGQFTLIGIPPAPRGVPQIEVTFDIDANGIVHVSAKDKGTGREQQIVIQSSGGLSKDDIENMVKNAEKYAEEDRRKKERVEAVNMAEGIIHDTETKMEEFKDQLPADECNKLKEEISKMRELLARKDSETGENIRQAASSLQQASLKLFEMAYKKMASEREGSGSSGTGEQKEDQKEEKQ

Chain of ferrous cytochrome c (Fe2+), horse heart (P00004 whole entry): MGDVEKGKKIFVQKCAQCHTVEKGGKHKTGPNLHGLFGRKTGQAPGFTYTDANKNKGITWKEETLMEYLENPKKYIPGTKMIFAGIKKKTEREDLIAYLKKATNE
Chain of mortalin (HSPA9) (UniProt P38646) (P38646 47-679): as the sequence (P38646 47-679) above

Molecule	Kd (mortalin (HSPA9) [1]) [nM]	Ki [2] [nM]	Ki [3] [nM]	Kd (mortalin (HSPA9) [4]) [nM]
Bcl-2 (from UniProt P10415 1-239) (natural protein)	171			
full-length human p66Shc (wildtype) (natural protein, UniProt P29353-1 1-583, looked up, Alexa 647 label (only in the MST with cytochrome c, where p66Shc was the labelled protein)) MDLLPPKPKYNPLRNESLSSLEEGASGSTPPEELPSPSASSLGPILPPLPGDDSPTTLCSFFPRMSNLRLANPAGGRPGSKGEPGRAADDGEGIVGAAMPDSGPLPLLQDMNKLSGGGGRRTRVEGGQLGGEEWTRHGSFVNKPTRGWLHPNDKVMGPGVSYLVRYMGCVEVLQSMRALDFNTRTQVTREAISLVCEAVPGAKGATRRRKPCSRPLSSILGRSNLKFAGMPITLTVSTSSLNLMAADCKQIIANHHMQSISFASGGDPDTAEYVAYVAKDPVNQRACHILECPEGLAQDVISTIGQAFELRFKQYLRNPPKLVTPHDRMAGFDGSAWDEEEEEPPDHQYYNDFPGKEPPLGGVVDMRLREGAAPGAARPTAPNAQTPSHLGATLPVGQPVGGDPEVRKQMPPPPPCPGRELFDDPSYVNVQNLDKARQAVGGAGPPNPAINGSAPRDLFDMKPFEDALRVPPPPQSVSMAEQLRGEPWFHGKLSRREAEALLQLNGDFLVRESTTTPGQYVLTGLQSGQPKHLLLVDPEGVVRTKDHRFESVSHLISYHMDNHLPIISAGSELCLQQPVERKL		1430	3540	858
